Molecular target: FGFR1c (UniProt P11362)
Experiment: cell-based or functional assay

FGFR1c, sequence (P11362 22-822): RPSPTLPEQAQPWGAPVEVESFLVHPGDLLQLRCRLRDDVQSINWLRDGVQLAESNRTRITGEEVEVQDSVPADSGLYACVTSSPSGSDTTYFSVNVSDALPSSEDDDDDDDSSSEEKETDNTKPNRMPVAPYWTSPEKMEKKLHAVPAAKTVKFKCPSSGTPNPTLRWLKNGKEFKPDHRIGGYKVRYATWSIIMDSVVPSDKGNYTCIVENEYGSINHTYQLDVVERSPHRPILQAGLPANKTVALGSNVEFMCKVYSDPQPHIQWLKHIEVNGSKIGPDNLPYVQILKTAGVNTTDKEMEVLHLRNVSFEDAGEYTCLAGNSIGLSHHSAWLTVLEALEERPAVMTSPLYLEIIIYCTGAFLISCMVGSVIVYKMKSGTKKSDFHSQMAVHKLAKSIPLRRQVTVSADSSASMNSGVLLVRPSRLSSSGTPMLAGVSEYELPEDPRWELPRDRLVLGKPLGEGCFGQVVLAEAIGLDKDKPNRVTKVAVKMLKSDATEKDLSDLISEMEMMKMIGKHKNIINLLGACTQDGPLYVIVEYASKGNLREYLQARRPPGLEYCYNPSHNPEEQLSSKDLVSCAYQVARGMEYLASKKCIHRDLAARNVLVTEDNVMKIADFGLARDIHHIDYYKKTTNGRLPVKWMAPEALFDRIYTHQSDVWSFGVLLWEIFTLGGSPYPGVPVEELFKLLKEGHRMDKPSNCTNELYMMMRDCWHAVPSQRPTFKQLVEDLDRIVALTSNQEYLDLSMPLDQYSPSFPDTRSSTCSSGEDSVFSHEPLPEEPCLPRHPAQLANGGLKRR

EC50(nM), dual-luciferase reporter gene assay, iLite FGF21 assay ready cells	Substance
1.98 nM	Human mature FGF21 fusion protein with a N-terminal PAS200 modification (PAS200FGF21) (ligand)
0.4 nM	Human mature FGF21 fusion protein with a N-terminal PAS50 modification (PAS50FGF21) (ligand)
0.3 nM	Human mature FGF21 fusion protein with a N-terminal PAS30 modification (PAS30FGF21) (ligand)
0.22 nM	Human mature FGF21 fusion protein with a N-terminal PAS15 modification (PAS15FGF21) (from UniProt Q9NSA1 29-209) (ligand)
0.62 nM	Human mature FGF21 fusion protein with a N-terminal PAS100 modification (PAS100FGF21) (ligand)

— patent EP4700044A1, “PROTEIN ANALOGUE AND USE THEREOF” (Shanghai Duomirui Biotechnology., Ltd., priority 2023, dated 2024)
